Literature values in US5747454A, “Chromogranin peptides” (Albert Einstein College of Medicine of Yeshiva University, priority 1995, dated 1998).

System: primary cultures of parathyroid cells

B1: Chromogranin A: large, acidic protein found in the secretory granules of endocrine and neuroendocrine tissues including the parathyroid (protein, UniProt P10645 19-457, looked up)
Chromogranin-A: LPVNSPMNKGDTEVMKCIVEVISDTLSKPSPMPVSQECFETLRGDERILSILRHQNLLKELQDLALQGAKERAHQQKKHSGFEDELSEVLENQSSQAELKEAVEEPSSKDVMEKREDSKEAEKSGEATDGARPQALPEPMQESKAEGNNQAPGEEEEEEEEATNTHPPASLPSQKYPGPQAEGDSEGLSQGLVDREKGLSAEPGWQAKREEEEEEEEEAEAGEEAVPEEEGPTVVLNPHPSLGYKEIRKGESRSEALAVDGAGKPGAEEAQDPEGKGEQEHSQQKEEEEEMAVVPQGLFRGGKSGELEQEEERLSKEWEDSKRWSKMDQLAKELTAEKRLEGQEEEEDNRDSSMKLSFRARAYGFRGPGPQLRRGWRPSSREDSLEAGLPLQVRGYPEEKKEEEGSANRRPEDQELESLSAIEAELEKVAHQLQALRRG
Question: Which “inhibition of parathyroid hormone secretion” value does the source give for B1 here?
Answer: Its value is “inhibit parathyroid hormone secretion”.
